In the supplement of paper PMC10567573:

B1: C8orf76 (parent)
chain: KLAEAYLNLGPALSAALASSQKQH
B2: BTBD10 (parent)
chain: FVYENAKEGARNIRTSERVTLIVD

Variants of: B1
Assay: protein stability index of a GFP-peptide fusion (GPS, HEK-293T) (PSI 1-6); higher = more stable
Details: c terminus: a fixed tail appended
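Note: lentivirally expressed fusions sorted by FACS into six bins by GFP to DsRed ratio, PSI derived from sequencing read proportions per bin multiplied by bin number.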

Protein stability index, by site and new letter:
H24: N 2.29; E 1.47; C 3.67; S 2.83; V 3.61; M 3.02; A 4.29; Y 2.56; T 2.79; D 1.67; Q 3.32; F 3.48; K 1.76; P 2.62; W 1.9; I 2.4; L 2.44; R 3
Q23: W 2.43; S 2.91; Y 2.51; R 2.04; T 2.83; V 2.9

Variants of: B2
Assay: as above
Details: c terminus: a fixed tail appended

Protein stability index: each site, then its substitutions
V19: F 2.27; P 2.73; H 2.35; R 2.34; D 2.48; T 2.39
E17: Q 1.87; S 1.91; H 1.8
E4: Q 1.94; H 2.16; V 2.83; A 1.82
E8: W 2.04; Y 1.94; T 2.11; N 1.81
A10: P 2.7; I 2; Y 1.86; S 2.01
N5: A 1.9; C 2.42; H 2.19; K 1.94; W 3.23; G 2.47; T 2.25; Y 1.61; I 1.61; E 2.35; M 1.61; P 2.52
F1: N 3.75; A 3.21; S 3.23; M 3.78; P 3.46; Y 2.27
R18: G 2.31; F 2.16; H 1.98; A 1.77; Y 1.44; L 1.83; D 2.61; K 2.1
A6: P 2.41; L 1.69; R 1.84; Q 1.96; V 1.85
G9: F 2.31; S 1.8; Q 2.09; A 1.85
S16: T 1.89; N 2.64; Y 2.44; W 2.1; E 2.57; M 2.28; L 1.39
I13: Y 2.37; C 1.8; S 2.44; V 2.06
D24: N 1.95; Q 2.03; C 1.91; K 1.72; M 1.95; L 2.03
K7: N 2.54; G 1.99; E 2.74; A 2.23; Q 2.19; L 1.42
V2: K 3.06; N 3.58; S 3.27; D 3.56; R 3.04
R14: P 1.85; C 1.83; G 1.99; L 1.55
V23: P 3.05; R 2.68; K 2.06; Q 2.47
T15: L 1.47; M 1.97; C 1.91; F 1.99; I 1.68; G 2.36
N12: K 2.19; S 1.97; Y 2.61; C 1.51; V 1.17; W 3.12; P 2.65; L 1.34
Y3: K 2.08; R 2.73; G 2.35; N 2.48; Q 2.62; C 2.17
T20: M 1.82; D 1.92; I 1.84; G 1.59; Y 1.81; N 2.56; R 1.81; W 3.5; F 2.63; C 2.74
I22: R 2.24; K 2.34; L 1.72; C 2.33; P 2.89; Y 1.81
L21: K 2.6; A 2.34; Q 2.83; D 3.07; H 2.11; W 2.56; N 2.63; C 2.32; I 1.57; E 2.79; P 2.03
R11: C 2.07; D 2.82; V 2.3; L 2.67
